Measurements reported in patent US20140336363A1 (Hoffmann-La Roche, published 2014).
Residue numbers refer to the chain shown, from its start. Read-outs that look alike come from different tables or passages of the source.

Columns and labels:
[1] = target: huCSF-1R-huFc chimera (soluble extracellular domain) (human) (UniProt P07333); assay: competition ELISA: antibody on plate-bound huCSF-1R-huFc, then 3 ng/ml CSF-1
[2] = target: CSF-1R ECD (R&D-Systems 329-MR or in-house subcloned pCMV-presS-HisAvitag-hCSF-1R-ECD) (human) (UniProt P07333); assay: SPR cross-competition, 25 C; second antibody on CSF-1R held by captured Antibody 1; competitor <CSF-1R>9D11.2E8
Sequence of CSF-1R ECD (R&D-Systems 329-MR or in-house subcloned pCMV-presS-HisAvitag-hCSF-1R-ECD) (human) (P07333 20-517 limits assumed): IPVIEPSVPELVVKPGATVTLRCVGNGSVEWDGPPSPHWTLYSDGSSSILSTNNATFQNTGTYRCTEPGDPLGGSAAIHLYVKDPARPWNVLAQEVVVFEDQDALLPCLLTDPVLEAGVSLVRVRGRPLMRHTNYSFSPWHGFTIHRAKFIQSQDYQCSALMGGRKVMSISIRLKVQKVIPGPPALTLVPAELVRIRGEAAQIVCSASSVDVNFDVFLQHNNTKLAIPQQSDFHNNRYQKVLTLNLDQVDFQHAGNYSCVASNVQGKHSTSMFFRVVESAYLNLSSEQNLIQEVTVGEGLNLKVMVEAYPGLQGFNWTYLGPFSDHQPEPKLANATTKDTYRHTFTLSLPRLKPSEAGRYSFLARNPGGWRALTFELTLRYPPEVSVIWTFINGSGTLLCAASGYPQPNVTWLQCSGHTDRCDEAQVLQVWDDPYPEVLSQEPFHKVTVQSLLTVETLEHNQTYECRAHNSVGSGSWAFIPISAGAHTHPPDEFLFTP

[3] = target: CSF-1R ECD (R&D-Systems 329-MR or in-house subcloned pCMV-presS-HisAvitag-hCSF-1R-ECD) (human) (UniProt P07333); assay: SPR cross-competition, 25 C; second antibody on CSF-1R held by captured Antibody 1; competitor SC-02, clone 2-4A5
[4] = target: T1, full-length wildtype CSF-1R (wt CSF-1R) (human, UniProt P07333 20-972); assay: cell-based or functional assay
T1 sequence (P07333 20-972 limits assumed): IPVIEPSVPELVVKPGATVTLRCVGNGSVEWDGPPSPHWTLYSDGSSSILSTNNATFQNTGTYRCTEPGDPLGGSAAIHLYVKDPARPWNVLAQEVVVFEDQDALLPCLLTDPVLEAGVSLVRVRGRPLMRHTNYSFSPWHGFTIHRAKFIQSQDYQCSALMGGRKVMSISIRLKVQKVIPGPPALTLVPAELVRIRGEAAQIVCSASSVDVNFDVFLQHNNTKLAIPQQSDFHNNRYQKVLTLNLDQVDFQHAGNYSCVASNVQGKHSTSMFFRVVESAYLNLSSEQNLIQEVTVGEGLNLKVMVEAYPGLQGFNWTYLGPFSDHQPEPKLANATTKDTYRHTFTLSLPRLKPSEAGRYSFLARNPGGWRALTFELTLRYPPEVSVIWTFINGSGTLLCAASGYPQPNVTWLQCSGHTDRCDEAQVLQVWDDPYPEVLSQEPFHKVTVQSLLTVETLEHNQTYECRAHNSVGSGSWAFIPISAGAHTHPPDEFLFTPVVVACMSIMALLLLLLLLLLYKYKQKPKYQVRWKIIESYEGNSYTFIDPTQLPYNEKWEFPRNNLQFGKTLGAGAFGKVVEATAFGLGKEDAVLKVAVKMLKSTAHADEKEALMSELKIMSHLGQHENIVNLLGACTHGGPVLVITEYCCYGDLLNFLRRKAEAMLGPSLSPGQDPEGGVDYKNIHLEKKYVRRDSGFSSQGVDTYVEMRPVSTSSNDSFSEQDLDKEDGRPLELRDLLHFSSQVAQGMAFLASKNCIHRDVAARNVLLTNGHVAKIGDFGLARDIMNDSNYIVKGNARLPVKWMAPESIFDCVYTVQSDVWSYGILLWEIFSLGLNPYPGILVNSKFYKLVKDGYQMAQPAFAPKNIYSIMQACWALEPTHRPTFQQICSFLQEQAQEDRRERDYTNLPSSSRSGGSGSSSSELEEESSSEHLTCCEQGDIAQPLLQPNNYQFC

[5] = target: mutant CSF-1R L301S Y969F (human) (UniProt P07333); assay: cell-based or functional assay
Sequence of mutant CSF-1R L301S Y969F (human) (P07333 20-972 L301S/Y969F limits assumed): as the sequence (P07333 20-972 limits assumed) above, with L282S, Y950F counted along it

[6] = target: CSF-1R ECD (R&D-Systems 329-MR or in-house subcloned pCMV-presS-HisAvitag-hCSF-1R-ECD) (human) (UniProt P07333); assay: SPR (BIACORE A100), 35 C, antibody captured, CSF-1R ECD in solution
[7] = target: CSF-1R ECD (R&D-Systems 329-MR or in-house subcloned pCMV-presS-HisAvitag-hCSF-1R-ECD) (human) (UniProt P07333); assay: SPR cross-competition, 25 C; second antibody on CSF-1R held by captured Antibody 1; competitor <CSF-1R>10H2.2F12
[8] = target: T2, CSF-1R ECD (D1-D3) (human, UniProt P07333 20-296, limits assumed); assay: as in WO2011070024, Example 10 (method not told here)
T2 construct: also called domains D1 to D3 of the extracellular domain of human CSF-1R
T2 sequence (P07333 20-296 limits assumed): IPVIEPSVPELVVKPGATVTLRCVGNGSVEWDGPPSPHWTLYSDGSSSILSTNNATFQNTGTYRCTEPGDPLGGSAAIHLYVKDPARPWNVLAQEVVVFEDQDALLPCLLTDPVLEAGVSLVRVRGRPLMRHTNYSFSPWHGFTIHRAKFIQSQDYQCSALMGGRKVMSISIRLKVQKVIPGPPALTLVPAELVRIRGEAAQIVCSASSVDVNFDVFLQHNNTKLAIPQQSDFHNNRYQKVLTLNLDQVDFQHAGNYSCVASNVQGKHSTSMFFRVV

[9] = target: T3, CSF-1R ECD (R&D-Systems 329-MR or in-house subcloned pCMV-presS-HisAvitag-hCSF-1R-ECD) (human, UniProt P07333 20-517); assay: SPR (BIACORE A100), 35 C, antibody captured, CSF-1R ECD in solution
T3 construct: also called CSF-1R (R&D-Systems Cat. No. 329-MR); human CSF-1R Extracellular Domain (comprising domains D1 to D5)
T3 sequence (P07333 20-517 limits assumed): as the sequence (P07333 20-517 limits assumed) above
Experimental: CSF-1R ECD (R&D-Systems 329-MR or in-house subcloned pCMV-presS-HisAvitag-hCSF-1R-ECD were added in various concentrations in solution. Association was measured by an CSF-1R-injection of 1.5 minutes at 35° C.; dissociation was measured by washing the chip surface with buffer for 10 minutes at 35° C. Anti CSF-IR SC-02, clone 2-4A5 (Santa Cruz Biotechnology, US; see also Sherr, C. J., et al., Cell 41 (1985) 665-676), which inhibits the ligand-receptor interaction, was used as reference control.

[10] = target: T4, huCSF-1R-huFc chimera (soluble extracellular domain) (human, UniProt P07333 20-517); assay: competition ELISA: antibody on plate-bound huCSF-1R-huFc, then 3 ng/ml CSF-1
T4 construct: Captured on the plate by anti Fc-gamma; also called huCSF-1R ECDhuFc chimera; not shown: human Fc part
T4 sequence (P07333 20-517, change not shown): as the sequence (P07333 20-517 limits assumed) above
Experimental: At the beginning, plates were coated with […] goat F(ab′)₂ biotinylated anti Fcγ (Jackson ImmunoResearch., Cat. No. 109-006-170) for 1 hour (h).
Thereafter the wells were blocked with PBS supplemented with 0.2% Tween®-20 and 2% BSA (Roche Diagnostics GmbH, DE) for 0.5 h. 75 ng/ml of huCSF-1R-huFc chimera (soluble extracellular domain) was immobilized to plate for 1 h. Then dilutions of purified antibodies in PBS/0.05% Tween20/0.5% BSA were incubated for 1 h. After adding a mixture of 3 ng/ml CSF-1 (Biomol, DE, Cat. No. 60530), 50 ng/ml biotinylated anti CSF-1 clone BAF216 (R&D Systems, UK) and 1:5000 diluted streptavidin HRP (Roche Diagnostics GmbH, DE, Cat. No. 11089153001) for 1 h the plates were washed 6 times with PBST. Anti CSF-IR SC-02, clone 2-4A5 (Santa Cruz Biotechnology, US), which inhibits the ligand-receptor interaction, was used as positive control. Plates were developed with freshly prepared BM Blue® POD substrate solution (BM Blue®:3,3″-5,5″-Tetramethylbenzidine, Roche Diagnostics GmbH, DE, Cat. No. 11484281001) for 30 minutes at RT. Absorbance was measured at 370 nm. […] Anti CSF-IR SC-02, clone 2-4A5 (Santa Cruz Biotechnology, US), which inhibits the ligand-receptor interaction, was used as reference control.

[11] = target: T1, full-length wildtype CSF-1R (wt CSF-1R); assay: cell-based or functional assay; remark: listed apart in the source
[12] = target: T1, full-length wildtype CSF-1R (wt CSF-1R); assay: cell-based or functional assay; remark: listed apart in the source

Sequence of huCSF-1R-huFc chimera (soluble extracellular domain) (human) (P07333 20-517, change not shown): as the sequence (P07333 20-517 limits assumed) above

Molecule: Anti CSF-1R SC-02, clone 2-4A5 (Santa Cruz Biotechnology, US) (antibody)
- IC50 [1]: 0.0309 µg/mL
- percentage (%) of expected binding response [2]: 37%
- percentage (%) of expected binding response [3]: -2%
- % Inhibition of growth of NIH3T3-wtCSF-1R cells, 10 µg/ml antibody [4]: 38%
- % inhibition of CSF-1 induced growth of BeWo cells, 10 µg/ml antibody concentration [4]: 40%
- % survival of NIH3T3-wtCSF-1R cells, 10 µg/ml antibody (CellTiterGlo) [4]: 62%
- IC50 CSF-1R Phosphorylation (CSF-1-induced, NIH3T3-CSF-1R cells, ELISA of lysate) [4]: 0.412 µg/mL
- IC50 of inhibition of survival of human monocytes with huCSF-1 (CellTiterGlo) [4]: 2.4 nM
- % Inhibition of growth of NIH3T3-mutant CSF-1R cells, 10 µg/ml antibody [5]: 34%
- % survival of NIH3T3-mutant CSF-1R cells, 10 µg/ml antibody (CellTiterGlo) [5]: 66%
- Kd [6]: 2.73 nM
- koff [6]: 0.00139 s⁻¹
- kon [6]: 509000 M⁻¹ s⁻¹
- t1/2 [6]: 8.31 min
- percentage (%) of expected binding response [7]: 42%

Molecule: goat polyclonal anti-CSF-1R antibody ab10676 (abcam)
- percentage of inhibition the growth of NIH3T3-mutant CSF-1R L301S Y969F recombinant cells, up to 20 µg/ml [5]: < 0%

B1: <CSF-1R>10H2.2F12 (antibody, V domains shown)
VH: QVQLKQSGPGLVQPSQSLSITCTVSGFSLTTYGINWVRLSPGKGLEWLGMIWRGGNTDYNAAFMSRLTITKDNSKNHVFFQLNSLQPDDTAIYFCAKSGGLRLYYAMDYWGQGTSVTVSS
VL: DVVMTQPPLSLPVSLGDQASISCRSSQSLVHSNGNTYLHWYLQKPGQSPKLLIYKVSNRLSGVPDRFSGSGSGTDFTLKISRVEAEDLGVYFCSQSSHVPWTFGGGTKLEIRR
notes: Mouse monoclonal antibody from a hybridoma
- % Inhibition of growth of NIH3T3-wtCSF-1R cells, 10 µg/ml antibody [4]: 97%
- % inhibition of CSF-1 induced growth of BeWo cells, 10 µg/ml antibody concentration [4]: 100%
- % survival of NIH3T3-wtCSF-1R cells, 10 µg/ml antibody (CellTiterGlo) [4]: 3%
- IC50 CSF-1R Phosphorylation (CSF-1-induced, NIH3T3-CSF-1R cells, ELISA of lysate) [4]: 0.0445 µg/mL
- IC50 of inhibition of survival of human monocytes with huCSF-1 (CellTiterGlo) [4]: 0.6 nM
- % Inhibition of growth of NIH3T3-mutant CSF-1R cells, 10 µg/ml antibody [5]: 65%
- % survival of NIH3T3-mutant CSF-1R cells, 10 µg/ml antibody (CellTiterGlo) [5]: 35%
- binding result [8]: no binding
- Kd [9]: 0.78 nM
- koff [9]: 0.0004 s⁻¹
- kon [9]: 520000 M⁻¹ s⁻¹
- t1/2 [9]: 28.6 min

B2: <CSF-1R>9D11.2E8 (antibody, V domains shown)
VH: DVKLVESGGGLVKLGGSLKLSCAASGFTFSSYYMSWIRQTPDKRLELVAAIKTNGDNFDYPDTVKGRFTISRDNAKNTLYLQMNSLKSEDTALYYCARSQLLRYYAMDYWGQGTSVTVSS
VL: B1 VL with P7T, L60F, R82S, R112K
notes: Mouse monoclonal antibody from a hybridoma (NMRI mice), captured by anti mouse Fc-gamma in SPR; also called deposited antibody DSM ACC2920
- IC50 [10]: 0.01 µg/mL
- IC50 CSF-1R Phosphorylation (CSF-1-induced, NIH3T3-CSF-1R cells, ELISA of lysate) [11]: 0.0728 µg/mL
- IC50 of inhibition of survival of human monocytes with huCSF-1 (CellTiterGlo) [12]: 0.7 nM
- binding result [8]: no binding
- Kd [9]: 0.77 nM
- koff [9]: 0.00036 s⁻¹
- kon [9]: 470000 M⁻¹ s⁻¹
- t1/2 [9]: 32 min
